Assay results reported in patent US20230391882A1 (NUMAB THERAPEUTICS, published 2023).
Positions count from the first letter of the chain named. Read-outs that look alike come from different tables or passages of the source.

Experiments:
[1] = target: soluble mesothelin (sMSLN) (UniProt Q13421 296-580, limits assumed); assay: cell-based or functional assay
[2] = target: T1, mesothelin (MSLN) on target cells (H226, MeT-5A) (UniProt Q13421 37-598, limits assumed); assay: cell-based or functional assay
[3] = target: T1, mesothelin (MSLN) on target cells …; assay: cell-based or functional assay; remark: listed apart in the source
[4] = target: T1, mesothelin (MSLN) on target cells …; assay: cell-based or functional assay; remark: listed apart in the source
[5] = target: T1, mesothelin (MSLN) on target cells …; assay: cell-based or functional assay; remark: listed apart in the source
[6] = target: T1, mesothelin (MSLN) on target cells …; assay: cell-based or functional assay; remark: listed apart in the source
[7] = target: T1, mesothelin (MSLN) on target cells …; assay: cell-based or functional assay; remark: listed apart in the source
[8] = target: T1, mesothelin (MSLN) on target cells …; assay: cell-based or functional assay; remark: listed apart in the source
[9] = target: T1, mesothelin (MSLN) on target cells …; assay: cell-based or functional assay; remark: listed apart in the source
[10] = target: T1, mesothelin (MSLN) on target cells …; assay: cell-based or functional assay; remark: listed apart in the source
[11] = target: recombinant human mesothelin (human MSLN) (human, UniProt Q13421 296-580, limits assumed); assay: KD ratio told in running text; method not given
[12] = target: T2, human CD137 on the transgenic NF-kB Jurkat reporter cell line (human, UniProt Q07011 24-255); assay: cell-based or functional assay
human PDL1 [13] = target: T3, human PDL1 (human, UniProt Q9NZQ7 19-238, limits assumed); assay: cell-based or functional assay
[14] = target: T2, human CD137 on the transgenic NF-kB …; assay: cell-based or functional assay; remark: listed apart in the source
human PDL1 [15] = target: T3, human PDL1; assay: cell-based or functional assay; remark: listed apart in the source
[16] = target: T2, human CD137 on the transgenic NF-kB …; assay: cell-based or functional assay; remark: listed apart in the source
human PDL1 [17] = target: T3, human PDL1; assay: cell-based or functional assay; remark: listed apart in the source

B1: PRO1872 (MSLN x CD3 x hSA) (54-22-H03-sc01 scFv/28-21-D09-sc04 scDb-i/23-13-A01-sc02 diS scDb-o) (other)
chain: DVVMTQSPSSLSASVGDRVTITCQASQIISSRSAWYQQKPGQPPKLLIYQASKLASGVPSRFSGSGSGTDFTLTISSLQPEDFATYYCQCTYIDSNFGAFGCGTKLTVLGGGGGSEVQLVESGGGLVQPGGSLRLSCAASGFSLSSYDMSWVRQAPGKGLAWIGASYASGPTYYASWAKGRFTISRDNSKNTVYLQMNSLRAEDTATYFCARGGWTGTSHSNIWGQGTLVTVSSGGGGSGGGGSGGGGSGGGGSDIQMTQSPSSLSASVGDRVTITCQSSQSVFSNNYLAWFQQKPGQSPKRLIYSASTLASGVPSRFSGSGSGTDFTLTISSLQPEDFATYYCLGSYACSSADCYVFGTGTKVTVLGGGGGSEVQLVESGGGLVQPGGSLRLSCAASGFSFSSSYWICWVRQAPGKCLEWVGCVFTGDGTTYYASWAKGRFTISRDNSKNTVYLQMNSLRAEDTATYFCARPVSVYYYGMDLWGQGTLVTVSSGGGGSGGGGSDIQMTQSPSSLSASVGDRVTITCQASESIGNYLAWYQQKPGKAPKLLIYSASTLASGVPSRFSGSGSGTDFTLTISSLQPEDFATYYCQSTDYGDSYIFGTGTKVTVLGGGGGSGGGGSGGGGSGGGGSEVQLVESGGGLVQPGGSLRLSCAASGISVSNDYYMCWVRQAPGKGLEWIGCISTYIGNTHYASWAKGRFTISRDNSKNTVYLQMNSLRAEDTAVYYCAKNAGYPGYRYAIDLWGQGTLVTVSS
notes: also called MSLNlowKDxCD3xhSA
increase of EC50 for killing high MSLN expressing target cells in the presence of 50 ng/ml sMSLN [1]: ~8 fold | increase of EC50 for killing high MSLN expressing target cells in the presence of 500 ng/ml sMSLN [1]: > 75 fold | EC50 (read off the curve); specific killing of H226 cells (high MSLN) [2]: ~0.005 nM | EC50 (read off the curve); specific killing of MeT-5A cells (low MSLN) [3]: ~0.01 nM | EC50 (read off the curve); activated CD8+ cells (CD69+) with MeT-5A cells (low MSLN) [4]: ~0.01 nM | EC50 (read off the curve); specific killing of H226 cells, no sMSLN [5]: ~0.05 nM | EC50 (read off the curve); specific killing of H226 cells, in presence of 50 ng/ml sMSLN [6]: ~0.6 nM | EC50 (read off the curve); specific killing of H226 cells, in presence of 500 ng/ml sMSLN [7]: ~5 nM | EC50 (read off the curve); activated CD8+ cells (CD69+) with H226 cells, without sMSLN [8]: ~0.02 nM | EC50 (read off the curve); activated CD8+ cells (CD69+) with H226 cells, with 50 ng/ml sMSLN [9]: ~0.2 nM | EC50 (read off the curve); activated CD8+ cells (CD69+) with H226 cells, with 500 ng/ml sMSLN [10]: ~1 nM | fold better binding affinity (KD) than the MSLN-BDs of PRO2000, PRO2562, PRO2566 and PRO2567 [11]: > 5 fold

B2: PRO1480 (38-27-A11 sc02 scDb-i/37-20-B03 sc09.1 scDb-o/19-01-H04 sc03 scFv) (other)
chain: DIQMTQSPASLSASVGDRVTITCQASQSIGTYLAWYQQKPGKPPKLLIYRAFILASGVPSRFSGSGSGTDFTLTISSLQPEDFATYYCQSNFYSDSTTIGPNAFGTGTKVTVLGGGGGSEVQLVESGGGLVQPGGSLRLSCAASGFSFSANYYPCWVRQAPGKGLEWIGCIYGGSSDITYDANWTKGRFTISRDNSKNTVYLQMNSLRAEDTAVYYCARSAWYSGWGGDLWGQGTLVTVSSGGGGSGGGGSGGGGSGGGGSIQMTQSPSSLSASVGDRVTITCQASQSISNRLAWYQQKPGKAPKLLIYSASTLASGVPSRFSGSGSGTDFTLTISSLQPEDFATYYCQSTYYGNDGNAFGTGTKVTVLGGGGGSEVQLVESGGGLVQPGGSLRLSCAASGFSFNSDYWIYWVRQAPGKGLEWIASIYGGSSGNTQYASWAQGRFTISRDNSKNTVYLQMNSLRAEDTAVYFCARGYVDYGGATDLWGQGTLVTVSSGGGGSGGGGSIQMTQSPSSLSASVGDRVTITCQSSESVYSNNQLSWYQQKPGQPPKLLIYDASDLASGVPSRFSGSGSGTDFTLTISSLQPEDFATYYCAGGFSSSSDTAFGGGTKLTVLGGGGGSGGGGSGGGGSGGGGSEVQLVESGGGLVQPGGSLRLSCAASGFSLSSNAMGWVRQAPGKGLEYIGIISVGGFTYYASWAKGRFTISRDNSKNTVYLQMNSLRAEDTATYFCARDRHGGDSSGAFYLWGQGTLVTVSS
EC50 (read off the curve); NF-kB reporter gene assay [12]: ~0.07 nM | IC50 (read off the curve); NFAT reporter gene assay, blocked ligand PD-1 (human PDL1 [13]): ~0.5 nM

B3: PRO1124 (38-02-A04 sc06 Full scDb-i/33-03-G02 sc01 scDb-o) (bispecific antibody)
chain: DIQMTQSPSSLSASVGDRVTITCQASQSINDYLAWYQQKPGKAPKLLIYKASTLASGVPSRFSGSGSGTDFTLTISSLQPEDFATYYCQQGYIITDIDNVFGTGTKVTVLGGGGGSQVQLQESGPGLVKPSETLSLTCKASGFSFSNSYWICWVRQPPGKGLEWIGCTFVGSSDSTYYANWAKGRVTISKDSSKNQVSLKLSSVTAADTAVYFCARHPSDAVYGYANNLWGQGTLVTVSSGGGGSGGGGSGGGGSGGGGSLQMTQSPSSLSASVGDRVTITCQASQSINNVLAWYQQKPGKPPKLLIYRASTLASGVPSRFSGSGSGTDFTLTISSLQPEDFATYYCQSSYGNYGDFGTGTKVTVLGGGGGSQVQLQESGPGLVKPSETLSLTCKVSGFSFSSGYDMCWIRQPPGKGLEWIGCVVAGSVDITYYASWAKGRVTISVDSSKNQFSLKLSSVTAADTAVYYCARKDAYSDAFNLWGQGTLVTVSS
EC50 (read off the curve); NF-kB reporter gene assay, rising part of the curve [14]: ~0.1 nM | IC50 (read off the curve); NFAT reporter gene assay, blocked ligand PD-1 (human PDL1 [15]): ~1 nM

B4: PRO885 (38-02-A04 sc01 scDb-i/33-03-G02 sc01 scDb-o) (bispecific antibody)
chain: B3 chain with A140V, V154I, K190V, V197F, F213Y, L261I, P302A
EC50 (read off the curve); NF-kB reporter gene assay, rising part of the curve [16]: ~0.3 nM | IC50 (read off the curve); NFAT reporter gene assay, blocked ligand PD-1 (human PDL1 [17]): ~2 nM
